Test results reported in publication PMC3017675 (Journal of molecular biology, 2010).

Experiments:
[1] = target: full-length Mycobacterium tuberculosis GroEL1 (M. tuberculosis H37Rv) (UniProt P9WPE9); test: SEC
[2] = target: full-length M. tuberculosis GroEL2 (M. tuberculosis, UniProt P9WPE7 1-540); test: peptide or protein array
Sequence of full-length M. tuberculosis GroEL2 (P9WPE7 whole entry): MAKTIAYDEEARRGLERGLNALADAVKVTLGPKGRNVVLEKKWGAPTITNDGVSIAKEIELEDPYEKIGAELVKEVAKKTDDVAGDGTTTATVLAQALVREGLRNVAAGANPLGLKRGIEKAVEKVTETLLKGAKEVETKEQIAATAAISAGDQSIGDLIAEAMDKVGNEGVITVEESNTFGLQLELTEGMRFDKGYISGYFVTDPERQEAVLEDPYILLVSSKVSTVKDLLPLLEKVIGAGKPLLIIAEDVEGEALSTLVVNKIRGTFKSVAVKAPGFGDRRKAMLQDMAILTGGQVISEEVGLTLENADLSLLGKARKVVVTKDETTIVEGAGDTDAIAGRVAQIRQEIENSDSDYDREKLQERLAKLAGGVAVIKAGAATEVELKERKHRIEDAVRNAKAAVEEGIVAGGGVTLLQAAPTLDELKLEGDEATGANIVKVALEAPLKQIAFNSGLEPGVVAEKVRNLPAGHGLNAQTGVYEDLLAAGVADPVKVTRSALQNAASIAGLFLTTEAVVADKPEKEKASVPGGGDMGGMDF

Molecule | stoichiometry N [1] | binding result [2]
full-length Mycobacterium tuberculosis GroEL1 (from UniProt P9WPE9 1-539) (natural protein) | 2 | 
APAADGVRAGRAMTRSLELAGL [KasA peptides Group H (spots F12-F17)] |  | binds
AVGALESVLTVLTLRDGVIP [KasA peptides Group I (spots G20-G24)] |  | binds
RGAKPLARLLGAGITSDA [KasA peptides Group G (spots F01-F04)] |  | binds
GGFPSVVVTAVTATTSIS [KasA peptides Group A (spots A05-A08)] |  | binds
